{"source": "paper PMC3828344", "tested_on": "vesicular stomatitis virus particle (Vesicular stomatitis virus)", "assay": "electrochemical aptasensor (SWV)"}
{"sequence": "GCTAGCGAATTCCGTACGAAGGGCGAATTCCACATTGGGCTGCAGCCCGGGGGATCC [thiolated AG3 (aptasensor)]", "values": [{"measurement": "binding signal (% of current decrease)", "value": 9.1}]}
